Assay results as given in patent publication US20190010233A1 (JIANGSU HYAMAB PHARMACEUTICAL, published 2019).
Read-outs that look alike come from different tables or passages of the source.

Assays:
[1] = target: T1, full length human PD-L1 on cells (human, UniProt Q9NZQ7 19-290); assay: FACS CHOK1-hPD-L1, 300 nM mAb
T1 construct: Also used as the target of the cell-based functional assays (transfected stimulator cells; PD-L1 of the cells in the mixed lymphocyte reaction); also called CHO-K1-hPD-L1; CHOK1-hPD-L1

[2] = target: T2, full length cyno PD-L1 on cells (cyno, UniProt G7PSE7 19-290); assay: FACS CHO-K1-cPD-L1, 3 nM mAb
T2 construct: also called CHO-K1-cPD-L1

[3] = target: T2, full length cyno PD-L1 on cells; assay: FACS CHO-K1-cPD-L1, 30 nM mAb
[4] = target: T2, full length cyno PD-L1 on cells; assay: FACS CHO-K1-cPD-L1, 300 nM mAb
[5] = target: T1, full length human PD-L1 on cells; assay: FACS CHOK1-hPD-L1, 3 nM mAb
[6] = target: T2, full length cyno PD-L1 on cells; assay: FACS CHO-K1-cPD-L1, 0.3 nM mAb
[7] = target: T2, full length cyno PD-L1 on cells; assay: FACS CHO-K1-cPD-L1, 0.03 nM mAb
[8] = target: T2, full length cyno PD-L1 on cells; assay: FACS CHO-K1-cPD-L1, 0.003 nM mAb
[9] = target: T1, full length human PD-L1 on cells; assay: FACS CHOK1-hPD-L1, 0.0003 nM mAb
[10] = target: T1, full length human PD-L1 on cells; assay: FACS CHOK1-hPD-L1, 0.3 nM mAb
[11] = target: T2, full length cyno PD-L1 on cells; assay: FACS CHO-K1-cPD-L1, 0.0003 nM mAb
[12] = target: T1, full length human PD-L1 on cells; assay: FACS CHOK1-hPD-L1, 30 nM mAb
[13] = target: T1, full length human PD-L1 on cells; assay: FACS CHOK1-hPD-L1, 0.003 nM mAb
[14] = target: T3, human PD-L1^ECD-hFc protein (human, UniProt Q9NZQ7 19-239, biotinylated in the PD-1 binding ELISA (Table 3) and in the Octet assay (Table 12)); assay: ELISA receptor-ligand blocking assay: PD-L1 protein coated, fully human antibody titrated, blocked ligand PD-1, inhibition rate (%)
T3 construct: The plain and the biotinylated protein are kept as one molecule; also called PD-L1-hFc; Immunogen A; not shown: human IgG Fc fragment (hFc)

[15] = target: T1, full length human PD-L1 on cells; assay: cell-based or functional assay
[16] = target: T1, full length human PD-L1 on cells; assay: cell-based or functional assay; remark: listed apart in the source
[17] = target: T4, recombinant His-tagged hPD-L1 ECD protein (human, UniProt Q9NZQ7 19-239); assay: SPR Biacore T200, mAb captured by anti-human Fc, His-tagged hPD-L1 ECD as analyte, 1:1 model
T4 construct: also called His-tagged human PD-L1 ECD protein; His-tagged PD-L1^ECD; not shown: His tag
Experimental: Anti-human Fc IgG was immobilized on flow cells 1 and 2: HBS-EP+ (10 mM HEPES, 150 mM NaCl, 3 mM EDTA, 0.05% P20, pH 7.4) was used as miming buffer, and the immobilization of anti-human Fc IgG was carried out using the immobilization wizard template. Flow cells 1 and 2 of a Series S CM5 sensor chip were activated with freshly-mixed 50 mmol/L NHS and 200 mmol/L EDC. 20 μg/mL of anti-human Fc IgG diluted in 10 mM NaAC (pH 4.5) was injected into the activated flow cells 1 and 2. The remaining active coupling sites were blocked with 1M ethanolamine.
KD measurements were carried out with HBS-EP+ as the running buffer. Each antibody was injected over the CM5 sensor flow cell 2 with a flow rate of 10 μL/min to reach response 230 RU. […] Buffer flow was maintained for 400 seconds for dissociation measurements (30 μL/min). To remove the tested antibody from the surface, 10 mM glycine-HCl pH 1.5 was injected for 20 seconds (30 μL/min). Flow cell 1 was used as reference flow cell. The above steps were repeated for each concentration of serially-diluted His-tagged PD-L1^ECD protein. The KD value for each antibody was evaluated using Biacore T200 evaluation software 1.0, and the data was fit with a 1:1 binding model.

[18] = target: T1, full length human PD-L1 on cells; assay: cell-based or functional assay; remark: listed apart in the source
[19] = target: T1, full length human PD-L1 on cells; assay: cell-based or functional assay; remark: listed apart in the source
[20] = target: T1, full length human PD-L1 on cells; assay: cell-based or functional assay; remark: listed apart in the source
[21] = target: T1, full length human PD-L1 on cells; assay: FACS CHOK1-hPD-L1, 0.03 nM mAb
[22] = target: T3, human PD-L1^ECD-hFc protein; assay: ELISA receptor-ligand blocking assay: PD-L1 protein coated, fully human antibody titrated, blocked ligand B7.1, inhibition rate (%)

T4 sequence (Q9NZQ7 19-239): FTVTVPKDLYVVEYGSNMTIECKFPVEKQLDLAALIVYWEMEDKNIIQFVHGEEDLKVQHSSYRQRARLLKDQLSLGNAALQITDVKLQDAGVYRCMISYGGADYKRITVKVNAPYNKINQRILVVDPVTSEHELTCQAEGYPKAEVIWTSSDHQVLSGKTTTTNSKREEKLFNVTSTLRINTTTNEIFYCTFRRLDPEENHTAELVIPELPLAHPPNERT
T1 sequence (Q9NZQ7 19-290 limits assumed): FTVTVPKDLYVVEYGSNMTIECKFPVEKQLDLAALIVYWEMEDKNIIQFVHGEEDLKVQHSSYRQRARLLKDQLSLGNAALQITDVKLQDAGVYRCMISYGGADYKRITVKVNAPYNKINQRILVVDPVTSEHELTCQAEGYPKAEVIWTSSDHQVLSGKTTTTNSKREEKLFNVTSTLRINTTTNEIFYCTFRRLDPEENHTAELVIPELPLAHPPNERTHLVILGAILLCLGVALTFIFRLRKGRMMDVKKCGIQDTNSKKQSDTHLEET
T2 sequence (G7PSE7 entry or part of it limits assumed): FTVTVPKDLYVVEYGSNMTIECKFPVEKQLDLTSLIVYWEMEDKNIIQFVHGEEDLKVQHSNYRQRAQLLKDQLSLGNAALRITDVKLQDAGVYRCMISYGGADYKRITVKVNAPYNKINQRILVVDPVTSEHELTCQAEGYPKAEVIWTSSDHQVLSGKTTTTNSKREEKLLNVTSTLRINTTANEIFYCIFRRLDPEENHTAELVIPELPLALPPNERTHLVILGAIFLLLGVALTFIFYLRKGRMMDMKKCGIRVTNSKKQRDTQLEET
T3 sequence (Q9NZQ7 19-239): as the sequence (Q9NZQ7 19-239) above

B1: fully human anti-PD-L1 antibody 73D3G2 (antibody, human IgG4 S228P, kappa, V domains shown)
VH: EVQLVESGGGLVQPGGSLRLSCAASGFTFNTYWMNWVRQAPGRGLEWVANIKQDGGEKYYVDSVKGRFTISRDNAKNSLYLQMNSLRAEDTAMYYCARDGRSWYPDAFDIWGQGTVVTVSS
VL: DIQMTQSPSTLSASVGDRVTITCRASQSISTWLAWYQQKLGKAPKLLIYEVSILESGVPSRFSGSGSGTEFTLTISSLQPDDFATYYCQQYHSFSSFGGGTRVEIKR
notes: also called 73D3G2 (fully human)
How did the Mean fluorescence intensity [1] turn out when B1 was run?
The Mean fluorescence intensity was 602.

And the Mean fluorescence intensity [2]?
Its Mean fluorescence intensity is 495.

What about the Mean fluorescence intensity [3] of the same binder?
The Mean fluorescence intensity was 519.

And the Mean fluorescence intensity [4]?
The Mean fluorescence intensity was 512.

And the Mean fluorescence intensity [5]?
The Mean fluorescence intensity was 576.

What about the Mean fluorescence intensity [6] of the same binder?
The Mean fluorescence intensity was 174.

What about the Mean fluorescence intensity [7] of the same binder?
Its Mean fluorescence intensity is 26.2.

And the Mean fluorescence intensity [8]?
The Mean fluorescence intensity was 7.84.

And the Mean fluorescence intensity [9]?
Its Mean fluorescence intensity is 4.68.

And the Mean fluorescence intensity [10]?
The Mean fluorescence intensity was 193.

And the Mean fluorescence intensity [11]?
Its Mean fluorescence intensity is 4.87.

And the Mean fluorescence intensity [12]?
The Mean fluorescence intensity was 595.

What about the Mean fluorescence intensity [13] of the same binder?
The Mean fluorescence intensity was 7.6.

What about the “IC50 (read off the curve)” value [14] of the same binder?
The value was about 1 nM.

And the “IL-2 (pg/mL), MLR, 0.001 µg/mL mAb” value [15]?
The value was 59.7 pg/mL.

And the “IL-2 (pg/mL), MLR, 0.01 µg/mL mAb” value [15]?
Its value is 83.4 pg/mL.

What about the “IL-2 (pg/mL), MLR, 0.1 µg/mL mAb” value [15] of the same binder?
Its value is 114 pg/mL.

What about the “IL-2 (pg/mL), MLR, 1 µg/mL mAb” value [15] of the same binder?
The value was 139 pg/mL.

And the “IFN-γ (pg/mL), MLR, 0.001 µg/mL mAb” value [16]?
The value was 957 pg/mL.

What about the “IFN-γ (pg/mL), MLR, 0.01 µg/mL mAb” value [16] of the same binder?
The value was 1080 pg/mL.

And the “IFN-γ (pg/mL), MLR, 0.1 µg/mL mAb” value [16]?
Its value is 1990 pg/mL.

And the “IFN-γ (pg/mL), MLR, 1 µg/mL mAb” value [16]?
Its value is 3040 pg/mL.

What about the “IFN-γ (pg/mL), MLR, 10 µg/mL mAb” value [16] of the same binder?
The value was 2590 pg/mL.

And the Kd [17]?
Its Kd is 0.536 nM.

What about the koff [17] of the same binder?
The koff was 0.000757 s⁻¹.

What about the kon [17] of the same binder?
The kon was 1.41e+06 M⁻¹ s⁻¹.

What about the “IL-2 (pg/mL), MLR, 0.001 µg/mL mAb” value [18] of the same binder?
The value was 205 pg/mL.

What about the “IL-2 (pg/mL), MLR, 0.01 µg/mL mAb” value [18] of the same binder?
Its value is 218 pg/mL.

What about the “IL-2 (pg/mL), MLR, 0.1 µg/mL mAb” value [18] of the same binder?
Its value is 563 pg/mL.

And the “IL-2 (pg/mL), MLR, 1 µg/mL mAb” value [18]?
The value was 716 pg/mL.

And the “IL-2 (pg/mL), MLR, 10 µg/mL mAb” value [18]?
The value was 791 pg/mL.

What about the “IFN-γ (pg/mL), MLR, 0.001 µg/mL mAb” value [19] of the same binder?
Its value is 12500 pg/mL.

And the “IFN-γ (pg/mL), MLR, 0.01 µg/mL mAb” value [19]?
The value was 10000 pg/mL.

What about the “IFN-γ (pg/mL), MLR, 0.1 µg/mL mAb” value [19] of the same binder?
Its value is 21000 pg/mL.

And the “IFN-γ (pg/mL), MLR, 1 µg/mL mAb” value [19]?
Its value is 21500 pg/mL.

And the “IFN-γ (pg/mL), MLR, 10 µg/mL mAb” value [19]?
The value was 21400 pg/mL.

And the “IFN-γ (pg/mL), T cell stimulation assay, 0.001 µg/mL mAb” value [20]?
The value was 4450 pg/mL.

What about the “IFN-γ (pg/mL), T cell stimulation assay, 0.01 µg/mL mAb” value [20] of the same binder?
Its value is 10600 pg/mL.

What about the “IFN-γ (pg/mL), T cell stimulation assay, 0.1 µg/mL mAb” value [20] of the same binder?
The value was 12300 pg/mL.

And the “IFN-γ (pg/mL), T cell stimulation assay, 1 µg/mL mAb” value [20]?
The value was 12300 pg/mL.

And the “IFN-γ (pg/mL), T cell stimulation assay, 10 µg/mL mAb” value [20]?
Its value is 14000 pg/mL.

What about the Mean fluorescence intensity [21] of the same binder?
The Mean fluorescence intensity was 28.6.

And the “IC50 (read off the curve)” value [22]?
Its value is about 1 nM.
